According to patent US20260193372A1 (Hoffmann-La Roche, published 2026):

What was measured:
[1] = target: T1, plasma purified C3b (Complement Technology), biotinylated at cysteine 1010 with Maleimide-PEG3-biotin (human, UniProt P01024 23-667; P01024 749-1663, limits assumed, cysteine 1010 biotinylated (Maleimide-PEG3-biotin)); assay: BLI, dissociation of C3bBb, Ni2+ buffer, against wild type C3bBb formed in presence of magnesium ions
T1 construct: Loaded on streptavidin BLI sensors; also called Complement C3 beta chain (C3b); C3 fragment
T1 sequence (P01024 23-667 limits assumed, chain 1 of 2): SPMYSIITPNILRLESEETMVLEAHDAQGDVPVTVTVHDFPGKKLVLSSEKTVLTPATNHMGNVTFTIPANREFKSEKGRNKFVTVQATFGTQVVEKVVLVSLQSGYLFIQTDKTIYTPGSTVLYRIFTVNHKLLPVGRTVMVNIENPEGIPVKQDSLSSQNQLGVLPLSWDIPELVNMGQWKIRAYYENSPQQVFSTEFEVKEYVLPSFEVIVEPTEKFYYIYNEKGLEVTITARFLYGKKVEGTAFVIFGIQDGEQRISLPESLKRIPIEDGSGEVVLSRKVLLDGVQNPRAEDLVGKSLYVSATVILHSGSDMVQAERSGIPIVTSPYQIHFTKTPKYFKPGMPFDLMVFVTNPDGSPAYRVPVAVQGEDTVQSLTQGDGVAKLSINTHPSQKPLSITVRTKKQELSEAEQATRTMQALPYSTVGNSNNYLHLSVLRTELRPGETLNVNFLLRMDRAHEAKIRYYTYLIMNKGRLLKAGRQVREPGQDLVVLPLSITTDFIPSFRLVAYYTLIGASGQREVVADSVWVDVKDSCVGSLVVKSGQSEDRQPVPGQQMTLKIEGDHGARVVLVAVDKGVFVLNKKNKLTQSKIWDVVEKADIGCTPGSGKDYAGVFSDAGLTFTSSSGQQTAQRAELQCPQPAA
T1 sequence (P01024 749-1663 limits assumed, chain 2 of 2): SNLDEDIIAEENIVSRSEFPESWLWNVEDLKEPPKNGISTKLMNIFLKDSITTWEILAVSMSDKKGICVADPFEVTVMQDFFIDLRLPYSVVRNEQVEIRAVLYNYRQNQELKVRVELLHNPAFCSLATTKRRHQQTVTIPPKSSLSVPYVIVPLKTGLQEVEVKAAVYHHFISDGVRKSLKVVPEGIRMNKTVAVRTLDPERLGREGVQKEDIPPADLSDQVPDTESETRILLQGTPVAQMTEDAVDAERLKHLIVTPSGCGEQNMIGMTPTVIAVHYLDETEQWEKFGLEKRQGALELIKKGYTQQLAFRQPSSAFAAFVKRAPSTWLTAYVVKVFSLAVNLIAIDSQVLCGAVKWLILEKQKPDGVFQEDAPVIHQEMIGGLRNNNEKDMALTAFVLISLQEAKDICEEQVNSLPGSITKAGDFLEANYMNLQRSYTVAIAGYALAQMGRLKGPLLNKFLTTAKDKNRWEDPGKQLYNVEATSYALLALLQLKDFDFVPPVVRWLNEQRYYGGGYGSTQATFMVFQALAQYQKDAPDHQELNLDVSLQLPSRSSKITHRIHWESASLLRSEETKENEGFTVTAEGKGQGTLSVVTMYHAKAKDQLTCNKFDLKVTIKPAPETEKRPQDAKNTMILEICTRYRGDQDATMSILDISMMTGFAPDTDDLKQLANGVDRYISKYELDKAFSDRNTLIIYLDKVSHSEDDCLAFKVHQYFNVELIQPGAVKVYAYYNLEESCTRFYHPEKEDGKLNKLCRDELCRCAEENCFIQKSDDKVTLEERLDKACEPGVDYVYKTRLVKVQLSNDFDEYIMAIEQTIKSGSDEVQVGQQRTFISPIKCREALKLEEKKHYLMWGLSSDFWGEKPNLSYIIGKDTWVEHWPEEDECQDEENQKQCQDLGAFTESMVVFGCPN

[2] = target: T1, plasma purified C3b (Complement …); assay: BLI, biotinylated C3b on streptavidin sensor, FB with factor D, Mg2+ buffer, dissociation of C3bBb, double exponential fit
Method: To analyze stability of the C3bBb complexes having the different Bb subunits, C3b cysteine 1010 was biotinylated by incubating plasma purified C3b (Complement Technology) overnight at 4° C. in presence of 5 molar excess Maleimide-PEG3-biotin (Thermo Fisher Scientific) followed by purification on a Zeba spin column 40K (Thermo Fisher Scientific). This material was used to load streptavidin functionalized BLI sensors (SA sensors; Fortebio) in an Octet RED 384 device (Fortebio) at high density (5 nm BLI signal). C3bBb was assembled by exposing the C3b loaded sensors to different recombinant factor B variants (i.e. wild type SEQ ID NO: 1; D279G variant of SEQ ID NO: 2; D279G K350N M458I triple variant of SEQ ID NO: 3) in presence of 54 nM plasma purified factor D (Complement Technology) in HBS-T (Mg) buffer (150 mM NaCl, 10 mM HEPES, 1 mM MgCl2, 0.005% Tween20. pH 7.4) at 22° C. […]
After subtraction of the signal recorded from parallel reference sensors omitting the C3b loading step and subtraction of a control sensor omitting factor B and factor D, data of the dissociation phase was fitted to the double exponential ((A*exp(((−1)*B)*x)))+(C*exp(((−1)*D)*x)) using XLfit (IDBS software), allowing for heterogeneity in the assembled convertase population. […]

[3] = target: T1, plasma purified C3b (Complement …); assay: BLI, biotinylated C3b on streptavidin sensor, FB with factor D, Ni2+ buffer, dissociation of C3bBb, single exponential fit
Text: Correction of the BLI trace was identical to the experiment in presence of magnesium. Different from the Mg2+ containing C3bBb complexes, only one species was detected during dissociation and a single exponential decay (A*exp(((−1)*B)*x)) was used for analysis.

[4] = target: mixture of 5 nM human C3, 5 nM human C3a and 2.5 nM human C3b coated on the plate; assay: counterscreening ELISA, plate coated with a mixture of human C3, C3a and C3b, Fab supernatant
[5] = target: mixture of 10 nM human Factor B, 5 nM human Ba and 10 nM human Bb coated on the plate; assay: counterscreening ELISA, plate coated with a mixture of human Factor B, Ba and Bb, Fab supernatant
[6] = target: T2, stabilized human C3bBb complex comprising the Bb subunit of the FB protein of SEQ ID NO: 3 (triple mutant), … (human, UniProt P01024 23-667; P00751 260-764; P01024 749-1663, limits assumed, biotinylated with EZ-Link HPDP-Biotin (Cys)); assay: ELISA, biotinylated C3bBb on streptavidin plate, Fab supernatant, anti kappa/anti T7 HRP
T2 construct: also called C3bBb (D279G/350N/M458I); C3bBb triple mutant-HPDP
T2 sequence (P01024 23-667 limits assumed, stated change not applied, chain 1 of 3, one chain of several): as the sequence (P01024 23-667 limits assumed, chain 1 of 2) above
T2 sequence (P01024 749-1663 limits assumed, stated change not applied, chain 3 of 3, one chain of several): as the sequence (P01024 749-1663 limits assumed, chain 2 of 2) above
Method: (§1) Method: 20 μl of a mixture of 500 ng/ml stabilized human C3bBb-Cys-HPDP-Biotin (inhouse preparation), 1:3000 mouse anti human kappa HRP (Southern Biotech 9230-05) and 1:2000 Mouse IgG anti T7 Tag HRP (Novagen 69048-3) was added to a Microcoat Streptavidine coated 384 well Microplate (Microcoat 11974998001). 25 μl sample was added to the plate and incubated at room temperature for 1 hour. After incubation plates were washed with 90 μl/well washing buffer using a Biotek EL406 Washer and 30 μl TMB (3,3′,5,5′-3,3,5,5-Tetramethylbenzidine, Roche 11835033001) was added. After a 5 Minute incubation at room temperature the optical density (OD) was measured at 370 nm using an En Vision Multimode Plate Reader (Perkin Elmer).

[7] = target: T3, stabilized human C3bBb complex comprising the Bb subunit of the FB protein of SEQ ID NO: 2 (single mutant), … (human, UniProt P01024 23-667; P00751 260-764; P01024 749-1663, limits assumed, biotinylated with EZ-Link HPDP-Biotin (Cys)); assay: as above
T3 construct: also called C3bBb (D279G)
T3 sequence (P01024 23-667 limits assumed, stated change not applied, chain 1 of 3): as the sequence (P01024 23-667 limits assumed, chain 1 of 2) above
T3 sequence (P00751 other isoform, or with tags, fused parts or gaps mutant limits assumed, chain 2 of 3): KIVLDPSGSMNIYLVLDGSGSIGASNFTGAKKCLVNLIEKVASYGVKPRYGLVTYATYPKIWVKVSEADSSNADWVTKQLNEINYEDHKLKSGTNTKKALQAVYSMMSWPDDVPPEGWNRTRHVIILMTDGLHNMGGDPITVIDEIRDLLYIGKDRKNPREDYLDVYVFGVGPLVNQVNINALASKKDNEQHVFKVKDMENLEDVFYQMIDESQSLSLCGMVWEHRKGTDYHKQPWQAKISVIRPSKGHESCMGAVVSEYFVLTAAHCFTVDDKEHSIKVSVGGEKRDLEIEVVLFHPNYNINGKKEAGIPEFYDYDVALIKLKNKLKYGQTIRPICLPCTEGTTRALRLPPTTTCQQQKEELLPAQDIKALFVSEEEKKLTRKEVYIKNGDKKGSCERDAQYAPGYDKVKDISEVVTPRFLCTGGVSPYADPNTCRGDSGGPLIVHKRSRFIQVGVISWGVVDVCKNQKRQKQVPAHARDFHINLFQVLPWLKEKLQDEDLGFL
T3 sequence (P01024 749-1663 limits assumed, stated change not applied, chain 3 of 3): as the sequence (P01024 749-1663 limits assumed, chain 2 of 2) above
Method: as §1

B1: recombinant human FB with D279G, K350N and M458I with His Tag and Precission site (enzyme)
chain: KIVLDPSGSMNIYLVLDGSGSIGASNFTGAKKCLVNLIEKVASYGVKPRYGLVTYATYPKIWVKVSEADSSNADWVTKQLNEINYEDHKLNSGTNTKKALQAVYSMMSWPDDVPPEGWNRTRHVIILMTDGLHNMGGDPITVIDEIRDLLYIGKDRKNPREDYLDVYVFGVGPLVNQVNINALASKKDNEQHVFKVKDIENLEDVFYQMIDESQSLSLCGMVWEHRKGTDYHKQPWQAKISVIRPSKGHESCMGAVVSEYFVLTAAHCFTVDDKEHSIKVSVGGEKRDLEIEVVLFHPNYNINGKKEAGIPEFYDYDVALIKLKNKLKYGQTIRPICLPCTEGTTRALRLPPTTTCQQQKEELLPAQDIKALFVSEEEKKLTRKEVYIKNGDKKGSCERDAQYAPGYDKVKDISEVVTPRFLCTGGVSPYADPNTCRGDSGGPLIVHKRSRFIQVGVISWGVVDVCKNQKRQKQVPAHARDFHINLFQVLPWLKEKLQDEDLGFL
notes: Cleaved by factor D in the assay; the Bb subunit stays on C3b; also called FB (D279G, K350N and M458I); triple mutated Bb
[1]
  fold increase in C3bBb half-life: 135 fold
[2]
  prevalence of main species: 93%
  t ½: 119 min
[3]
  prevalence of main species: 100%
  t ½: 678 min

B2: C3bBb.P045.072 (Fab, V domains shown)
VH: KLQLVESGGGLVKPGGSLRLSCAASGRRFGVQDMSWVRQAPGKGLEWVGSISPKGDHKYLNTKFIGRFTISRDNSKNTLYLQMNSLRAEDTAVYYCARDWGYFDQWGQGTLVTVSS
VL: AIQMTQSPSSLSASVGDRVTITCHGSYWLSSEVAWYQQKPGKAPKLLIYDGNGIIGNVPSRFSGSGSHEDYTLTISSLQPEDFATYYCQQYRYHPYTFGHGTKVEIK
notes: Tested as soluble Fab in E. coli supernatant with a T7 tag at the C-terminus of the Fab CH1 domain; detected with anti human kappa
[4]
  OD (370 nm): -0.005 OD
[5]
  OD (370 nm): -0.01 OD
[6]
  OD (370 nm): 2.9 OD
[7]
  OD (370 nm): 0.023 OD

B3: C3bBb.P048.061 (Fab, V domains shown)
VH: GQLVESGGGLVKPGGSLRLSCKASGFYWGPGAMSWVRQAPGKGLEWVGSISPKGGSTDINPKIGGRFTISRDNNQDTLYLQMNSLRAEDTAVYYCARDIGFFDTWGQGTLVTVSS
VL: AIQMTQSPSSLSASVGDRVTITCQGSWLISNYLAWYQQKPGKAPKLLIFDAKYRAPEVPSRFSGSGSGTDFTLTISSLQPEDFATYYCQQYGGRLLTFGQGTKVEIK
notes: as for B2
[4]
  OD (370 nm): 0.001 OD
[5]
  OD (370 nm): 0.006 OD
[6]
  OD (370 nm): 1.9 OD
[7]
  OD (370 nm): 0.004 OD

B4: C3bBb.P048.127 (Fab, V domains shown)
VH: GQLVESGGGLVKPGGSLRLSCKASGFYWGPGAMSWVRQAPGKGLEWVGSISPKGGSTEYNTKVYGRFTISRDNNQDTLYLQMNSLRAEDTAVYYCARDIGFFDTWGQGTLVTVSS
VL: HQMTQSPSSLSASVGDRVTITCDGEWDISNYLAWYQQKPGKAPKLLIFDAKYRAPEVPSRFSGSGSGRDFTLTISSLQPEDFATYYCQQYNRMYFTFGQGTKVEIK
notes: as for B2
[4]
  OD (370 nm): -0.006 OD
[5]
  OD (370 nm): 0.002 OD
[6]
  OD (370 nm): 0.187 OD
[7]
  OD (370 nm): 2.42 OD

B5: C3bBb.P055.015 (Fab, V domains shown)
VH: GQLVESGGGLVKPGGSLRLSCKASGFYWGPGAMSWVRQAPGKGLEWVGSISPKGGSAEYASKVYGRFTISRDNNQDTLYLQMNSLRAEDTAVYYCARDIGFFDTWGQGTLVTVSS
VL: DYQMTQSPSSLSASVGDRVTITCEAHSQISNYLAWYQQKPGKAPKLLIFDAKYRAPEVPSRFSGSGSGPDFTLTISSLQPEDFATYYCQQYNDFWLTFGQGTKVEIK
notes: as for B2
[4]
  OD (370 nm): -0.014 OD
[5]
  OD (370 nm): 0.004 OD
[6]
  OD (370 nm): -0.01 OD
[7]
  OD (370 nm): 0.86 OD

B6: C3bBb.P048.241 (Fab, V domains shown)
VH: GQLVESGGGLVKPGGSLRLSCKASGFYWGPGAMSWVRQAPGKGLEWVGSISPKGGSAWYNNNFTGRFTISRDNNQDTLYLQMNSLRAEDTAVYYCARDIGFFDTWGQGTLVTVSS
VL: INQMTQSPSSLSASVGDRVTITCQAKWVISNYLAWYQQKPGKAPKLLIFDAKYRAPEVPSRFSGSGSDGTFTLTISSLQPEDFATYYCQQYDWWPYTFGQGTKVEIK
notes: as for B2
[4]
  OD (370 nm): 0.17 OD
[5]
  OD (370 nm): 0.037 OD
[6]
  OD (370 nm): 2.38 OD
[7]
  OD (370 nm): 2.57 OD
